According to article PMC11344771:

Assays:
[1] = biological target: rhodamine-labelled SemD (SemD^Rhod) (Chlamydia pneumoniae); assay: recruitment to giant unilamellar vesicles (confocal microscopy); PS-containing GUVs with bound SemD^Rhod or mutSemD^Rhod (1 µg) and GFP-fused partner (1 µg) in PBS, room temperature, imaged 5-20 min; fluorescence intensity ratio of GUV perimeter to background
[2] = biological target: N-WASP BR-GBD_(142-273) (Rattus norvegicus) (UniProt O08816); assay: SEC-SAXS; Superdex200 increase 10/300 GL, PBS pH 8.5 + 3 % glycerol, 20 °C; 8 mg/ml SemDΔAPH, 10 mg/ml BR-GBD, 8 mg/ml SemDΔAPH + BR-GBD, 3.3 mg/l SemDΔAPH + SNX9-SH3
[3] = biological target: BR-GBD fused to GFP (BR-GBD_(GFP-His)) (Rattus norvegicus) (UniProt O08816); assay: pull-down; GFP-Trap agarose, BR-GBD_(GFP-His) as bait, equimolar SemDΔAPHHis and Cdc42_(GppNHp) added simultaneously; immunoblot, normalised Elution:FT ratio
[4] = biological target: BR-GBD fused to GFP (BR-GBD_(GFP-His)) (Rattus norvegicus) (UniProt O08816); assay: pull-down; GFP-Trap agarose, BR-GBD_(GFP-His) or GFP alone as bait, equimolar test protein, 5 min RT then 30 min 4 °C, washed 6x with 10 mM Tris-HCl, 200 mM NaCl, pH 8.5; immunoblot, Elution:FT ratio normalised to the bait
SNX9-SH3GFP = assay: GUV membrane recruitment assay, confocal fluorescence quantification; details: PS-containing GUVs, read off a plot

Sequence of BR-GBD fused to GFP (BR-GBD_(GFP-His)) (Rattus norvegicus) (O08816 142-273): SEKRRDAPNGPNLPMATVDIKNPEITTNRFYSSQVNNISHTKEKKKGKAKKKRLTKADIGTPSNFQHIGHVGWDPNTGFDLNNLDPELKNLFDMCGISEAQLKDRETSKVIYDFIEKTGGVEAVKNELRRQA
Sequence of N-WASP BR-GBD_(142-273) (Rattus norvegicus) (O08816 142-273): as above
Sequence of BR-GBD fused to GFP (BR-GBD_(GFP-His)) (O08816 142-273): as above
Sequence of BR-GBDΔGFP (lacking the BR domain) (O08816 other isoform, or with tags, fused parts or gaps mutant): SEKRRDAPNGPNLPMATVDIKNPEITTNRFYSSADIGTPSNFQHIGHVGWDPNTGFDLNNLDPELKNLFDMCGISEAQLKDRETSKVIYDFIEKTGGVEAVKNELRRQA

Substance: BR-GBD fused to GFP (BR-GBD_(GFP-His)) (from UniProt O08816 142-273) (domain or fragment)
- fluorescence intensity ratio (GUV perimeter to background) [1]: 44.5 fold

Substance: BR-GBDΔGFP (lacking the BR domain) (from UniProt O08816 142-273) (domain or fragment)
- fold lower fluorescence intensity ratio than BR-GBDGFP (after 20 min) [1]: > 18 fold

Substance: SemDΔAPH_(67-382) (domain or fragment)
- stoichiometry N [2]: 1
- normalised Elution:FT ratio (with equimolar Cdc42 (GppNHp)) [3]: 100%
- normalised Elution:FT ratio [4]: 100%

Substance: rhodamine-labelled SemD (SemD^Rhod) R91V; P92A; R94V; P95A; P97V; P98A; P99V; P100A; R117V; P119A; P121V; P122A
- response (SNX9-SH3GFP; 5 min, parent: est. 950): 1.1
- response (SNX9-SH3GFP; 20 min, parent: est. 830): 1.1
